Measurements taken from EP4737480A1 (Japan Science and Technology Agency, dated 2026).

Molecular target: recombinant HER2 molecule (UniProt P04626 23-652)
Assay: BLI (Octet N1), HER2 on streptavidin biosensor

- Kd: 123 nM
- koff: 0.00258 s⁻¹
- kon: 20900 M⁻¹ s⁻¹
B1: trastuzumab light chain P95ΔP96Δ (other)
light: DIQMTQSPSSLSASVGDRVTITCRASQDVNTAVAWYQQKPGKAPKLLIYSASFLYSGVPSRFSGSRSGTDFTLTISSLQPEDFATYYCQQHYTTTFGQGTKVEIKRTVAAPSVFIFPPSDEQLKSGTASVVCLLNNFYPREAKVQWKVDNALQSGNSQESVTEQDSKDSTYSLSSTLTLSKADYEKHKVYACEVTHQGLSSPVTKSFNRGEC
notes: also called Tmb-L-PPΔ; Tmb-L-PΔΔ
